Blank lines part the entries; values can stand above or below the binder they belong to.
Key:
Mouse TREM2, on cells = target: T1, Mouse TREM2, on cells (mouse, UniProt Q99NH8 19-227); experiment: FACS cell binding; FIG. 1D
T1 chain: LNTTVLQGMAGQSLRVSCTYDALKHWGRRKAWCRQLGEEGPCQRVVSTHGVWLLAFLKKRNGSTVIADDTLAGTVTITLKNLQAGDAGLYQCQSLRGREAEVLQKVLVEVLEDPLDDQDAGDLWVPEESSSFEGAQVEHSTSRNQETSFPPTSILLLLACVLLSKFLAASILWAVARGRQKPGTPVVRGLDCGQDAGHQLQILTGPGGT

[1] = target: T2, His-tagged TREM2 ECD (ecto domain residues 19-172 of human TREM2, C-terminal 6X-His tag) (UniProt Q9NZC2 19-172); experiment: SPR (Biacore)
T2 chain: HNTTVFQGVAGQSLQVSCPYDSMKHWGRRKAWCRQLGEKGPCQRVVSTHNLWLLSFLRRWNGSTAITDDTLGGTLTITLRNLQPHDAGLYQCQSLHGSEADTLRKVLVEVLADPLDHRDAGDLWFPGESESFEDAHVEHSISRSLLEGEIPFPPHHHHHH

EC50 (Mouse TREM2, on cells): 6.81 nM
B1: RS9.F6 (antibody, V domains shown)
VH: QVQLQQPGAELVKPGASVKLSCKASGYTFTSYWMHWVKQSPGRGLEWIGRSDPTTGGTNYNEKFKTKATLTVDKPSSTAYMQLSSLTSDDSAVYYCVRTSGTGDYWGQGTSLTVSS
VL: DVVMTQTPLSLPVSLGDQASISCRSSQSLVHNNGNTFLHWYLQKPGQSPKLLIYKVSNRFSGVPDRFSGSGSGTDFTLKISRVEAEDLGVYFCSQTTHVPPTFGGGTKLEIK

Kd [1]: 2.27 nM
B2: RS9.F6/3C.35.21.17 (bispecific antibody)
heavy 1: QVQLQQPGAELVKPGASVKLSCKASGYTFTSYWMHWVKQSPGRGLEWIGRSDPTTGGTNYNEKFKTKATLTVDKPSSTAYMQLSSLTSDDSAVYYCVRTSGTGDYWGQGTSLTVSSASTKGPSVFPLAPSSKSTSGGTAALGCLVKDYFPEPVTVSWNSGALTSGVHTFPAVLQSSGLYSLSSVVTVPSSSLGTQTYICNVNHKPSNTKVDKKVEPKSCDKTHTCPPCPAPEAAGGPSVFLFPPKPKDTLMISRTPEVTCVVVDVSHEDPEVKFNWYVDGVEVHNAKTKPREEQYNSTYRVVSVLTVLHQDWLNGKEYKCKVSNKALGAPIEKTISKAKGQPREPQVYTLPPSRDELTKNQVSLWCLVKGFYPSDIAVLWESYGTEWASYKTTPPVLDSDGSFFLYSKLTVTKEEWQQGFVFSCSVMHEALHNHYTQKSLSLSPGK
heavy 2: QVQLQQPGAELVKPGASVKLSCKASGYTFTSYWMHWVKQSPGRGLEWIGRSDPTTGGTNYNEKFKTKATLTVDKPSSTAYMQLSSLTSDDSAVYYCVRTSGTGDYWGQGTSLTVSSASTKGPSVFPLAPSSKSTSGGTAALGCLVKDYFPEPVTVSWNSGALTSGVHTFPAVLQSSGLYSLSSVVTVPSSSLGTQTYICNVNHKPSNTKVDKKVEPKSCDKTHTCPPCPAPEAAGGPSVFLFPPKPKDTLMISRTPEVTCVVVDVSHEDPEVKFNWYVDGVEVHNAKTKPREEQYNSTYRVVSVLTVLHQDWLNGKEYKCKVSNKALGAPIEKTISKAKGQPREPQVYTLPPSRDELTKNQVSLSCAVKGFYPSDIAVEWESNGQPENNYKTTPPVLDSDGSFFLVSKLTVDKSRWQQGNVFSCSVMHEALHNHYTQKSLSLSPGK
light: B1 VL

Source: patent US20200277373A1 (published 2020)
